Measurements from patent US20180355061A1 (Janssen / Centocor, published 2018).

Experiments:
[1] = molecular target: T1, human PD-1 (soluble analyte in SPR) (human, UniProt Q15116 25-170, limits assumed); experiment: SPR (ProteOn XPR36), mAb captured on anti-human IgG Fc, PD-1 as analyte, 25 C
T1 construct: also called CD279; PDCD1
Description: (§1) Affinity measurements were performed using a ProteOn XPR36 system (BioRad). […] Approximately 5000 RU (response units) of mAbs were immobilized. The kinetic experiments were performed at 25° C. in running buffer (DPBS+0.01% P20+100 μg/mL BSA). To perform kinetic experiments, 200 RU of mAbs were captured followed by injections of analytes (human and cyno PD-1) at concentrations ranging from 1.563 nM to 400 nM (in a […] serial dilution). The association phase was monitored for 3 minutes at 50 μL/min, then followed by 10 or 15 minutes of buffer flow (dissociation phase). The chip surface was regenerated with two 18 second pulses of 100 mM H₃PO₄ (Sigma, Cat #7961) at 100 μL/min.
(§2) The collected data were processed using ProteOn Manager software. First, the data was corrected for background using inter-spots. Then, double reference subtraction of the data was performed by using the buffer injection for analyte injections. The kinetic analysis of the data was performed using a Langmuir 1:1 binding model. The result for each mAb was reported in the format of ka (On-rate), kd (Off-rate) and KD (equilibrium dissociation constant).
Affinity of the parental and humanized antibodies to PD-1 was measured using SPR as described in Example 1.

[2] = molecular target: T1, human PD-1 (soluble analyte in SPR); experiment: SPR (ProteOn XPR36), mAb from crude supernatant captured on anti-human IgG Fc, PD-1 as analyte, 25 C
[3] = molecular target: T2, cyno PD-1 (soluble analyte in SPR) (cyno); experiment: SPR (ProteOn XPR36), mAb captured on anti-human IgG Fc, cyno PD-1 as analyte, 25 C
T2 construct: also called cynomolgus PD-1
Description: as §1, §2
(§3) Affinity of the antibodies to human and cyno PD-1 was measured using SPR as described in Example 1.

[4] = molecular target: T1, human PD-1 (soluble analyte in SPR); experiment: SPR (ProteOn XPR36), mAb captured on anti-human IgG Fc, human PD-1 as analyte, 25 C
Description: as §1, §2, §3

T1 sequence (Q15116 25-170 limits assumed): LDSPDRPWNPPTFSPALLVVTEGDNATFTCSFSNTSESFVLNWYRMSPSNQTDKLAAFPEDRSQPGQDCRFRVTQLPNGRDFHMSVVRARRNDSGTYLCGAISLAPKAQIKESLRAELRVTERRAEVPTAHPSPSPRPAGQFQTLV

| Binder | Kd [1] | koff [1] | kon [1] | Kd [2] | koff [2] | kon [2] | Kd [3] | koff [3] | kon [3] | Kd [4] | koff [4] | kon [4] |
| --- | --- | --- | --- | --- | --- | --- | --- | --- | --- | --- | --- | --- |
| PD1B506 (antibody, human IgG1, kappa, V domains shown, Parental mouse antibody cloned as chimeric human IgG1; Bin 5; also called VH PD1H90; VL PD1L28) VH: QVQLQQPGAELVKPGASVKLSCKASGYTFTTYWMHWVKQRPGQGLEWIGEINPNNGGINYNEKFKKKATLTVDKSSSTAYMQLSSLTSEDSAVYYCTIDYYDYGGYWGQGTTLTVSS VL: DIVMTQSQKFMSTSVRDRVSVTCKASQNVGTNVAWYQQKPGQSPKALIYSASYRYSGVPDRFTGSGSGTDFTLTITNVQSEDLAEYFCQQYNIYPYTFGSGTKLEMKR | 52.4 nM | 0.0102 s⁻¹ | 195000 M⁻¹ s⁻¹ | – | – | – | – | – | – | – | – | – |
| PD1B845 (antibody, human IgG1, kappa, V domains shown, G56A variant of PD1B750, IgG1; tested as crude supernatant in SPR; also called VH PD1H399; VL PD1L470) VH: QVQLVQSGAEVKKPGASVKVSCKASGYTFTTYWMHWVRQAPGQGLEWMGEINPNNAGINYAQKFQGRVTLTVDKSISTAYMELSRLRSDDTAVYYCTIDYYDYGGYWGQGTLVTVSS VL: DIQMTQSPSSLSASVGDRVTITCKASQNVGTNVAWYQQKPEKAPKSLIYSASYRYSGVPSRFSGSGSGTDFTLTISSLQPEDFATYYCQQYNIYPYTFGQGTKLEIKR | – | – | – | 24 nM | 0.00843 s⁻¹ | 351000 M⁻¹ s⁻¹ | – | – | – | – | – | – |
| PD1B849 (antibody, human IgG1, kappa, V domains shown, N55E variant of PD1B750, IgG1; also called VH PD1H403; VL PD1L470) VH: QVQLVQSGAEVKKPGASVKVSCKASGYTFTTYWMHWVRQAPGQGLEWMGEINPNEGGINYAQKFQGRVTLTVDKSISTAYMELSRLRSDDTAVYYCTIDYYDYGGYWGQGTLVTVSS VL: DIQMTQSPSSLSASVGDRVTITCKASQNVGTNVAWYQQKPEKAPKSLIYSASYRYSGVPSRFSGSGSGTDFTLTISSLQPEDFATYYCQQYNIYPYTFGQGTKLEIKR | 47.1 nM | 0.00883 s⁻¹ | 188000 M⁻¹ s⁻¹ | – | – | – | – | – | – | – | – | – |
| PD1B847 (antibody, human IgG1, kappa, V domains shown, N55Q variant of PD1B750, IgG1; tested as crude supernatant in SPR; also called VH PD1H401; VL PD1L470) VH: QVQLVQSGAEVKKPGASVKVSCKASGYTFTTYWMHWVRQAPGQGLEWMGEINPNQGGINYAQKFQGRVTLTVDKSISTAYMELSRLRSDDTAVYYCTIDYYDYGGYWGQGTLVTVSS VL: DIQMTQSPSSLSASVGDRVTITCKASQNVGTNVAWYQQKPEKAPKSLIYSASYRYSGVPSRFSGSGSGTDFTLTISSLQPEDFATYYCQQYNIYPYTFGQGTKLEIKR | – | – | – | 24.6 nM | 0.00744 s⁻¹ | 303000 M⁻¹ s⁻¹ | – | – | – | – | – | – |
| PD1B846 (antibody, human IgG1, kappa, V domains shown, N55D, G56A variant of PD1B750, IgG1; tested as crude supernatant in SPR; also called VH PD1H400; VL PD1L470) VH: QVQLVQSGAEVKKPGASVKVSCKASGYTFTTYWMHWVRQAPGQGLEWMGEINPNDAGINYAQKFQGRVTLTVDKSISTAYMELSRLRSDDTAVYYCTIDYYDYGGYWGQGTLVTVSS VL: DIQMTQSPSSLSASVGDRVTITCKASQNVGTNVAWYQQKPEKAPKSLIYSASYRYSGVPSRFSGSGSGTDFTLTISSLQPEDFATYYCQQYNIYPYTFGQGTKLEIKR | – | – | – | 21.6 nM | 0.00753 s⁻¹ | 349000 M⁻¹ s⁻¹ | – | – | – | – | – | – |
| PD1B505 (antibody, human IgG1, kappa, V domains shown, Parental mouse antibody cloned as chimeric human IgG1; Bin 1; also called VH PD1H93; VL PD1L30) VH: DVQLQESGPELKKPGETVKISCKASGYTFTDYSMHWVKQAPGKGLKWMGWINIETGEPTYADDFKGRFAFSLETSASTAYLQINNLKNEDTATYFCARDYYGTYFYAMDYWGQGTTLTVSS VL: QIVLTQSPAIMSASLGERVTMTCTASSSVSSSYLHWYQQKPGSSPKLWIYSTSNLASGVPARFSGSGSGTSYSLTISSMEAEDAATYYCHQYHRSPLTFGAGTKLELKR | 29.1 nM | 0.00236 s⁻¹ | 81100 M⁻¹ s⁻¹ | – | – | – | – | – | – | – | – | – |
| PD1B1085 (antibody, human IgG1, kappa, V domains shown, also called VH PD1H585; VL PD1L469) VH: QVQLVQSGSELKKPGASVKVSCKASGYTFTDYSMHWVRQAPGQGLEWMGWINIETGYPTYAQGFTGRFVFSLDTSVSTAYLQISSLKAEDTAVYFCARDYYGTYFYAMDYWGQGTLVTVSS VL: EIVLTQSPATLSLSPGERATLSCTASSSVSSSYLHWYQQKPGLAPRLLIYSTSNLASGIPDRFSGSGSGTDYTLTISRLEPEDFAVYYCHQYHRSPLTFGQGTKLEIKR | – | – | – | – | – | – | 6.45 nM | 0.00129 s⁻¹ | 200000 M⁻¹ s⁻¹ | 0.911 nM | 0.000142 s⁻¹ | 156000 M⁻¹ s⁻¹ |
| PD1B1088 (antibody, human IgG1, kappa, V domains shown, also called VH PD1H405; VL PD1L651) VH: QVQLVQSGSELKKPGASVKVSCKASGYTFTDYSMHWVRQAPGQGLEWMGWINIETGEPTYAQGFTGRFVFSLDTSVSTAYLQISSLKAEDTAVYFCARDYYGTYFYAMDYWGQGTLVTVSS VL: EIVLTQSPATLSLSPGERATLSCTASSSFSSSYLHWYQQKPGLAPRLLIYSTSNLASGIPDRFSGSGSGTDYTLTISRLEPEDFAVYYCHQYHRSPLTFGQGTKLEIKR | – | – | – | – | – | – | 72.4 nM | 0.00479 s⁻¹ | 66100 M⁻¹ s⁻¹ | 10.9 nM | 0.000341 s⁻¹ | 31300 M⁻¹ s⁻¹ |
| PD1B1089 (antibody, human IgG1, kappa, V domains shown, also called VH PD1H405; VL PD1L652) VH: QVQLVQSGSELKKPGASVKVSCKASGYTFTDYSMHWVRQAPGQGLEWMGWINIETGEPTYAQGFTGRFVFSLDTSVSTAYLQISSLKAEDTAVYFCARDYYGTYFYAMDYWGQGTLVTVSS VL: EIVLTQSPATLSLSPGERATLSCTASSSVPSSYLHWYQQKPGLAPRLLIYSTSNLASGIPDRFSGSGSGTDYTLTISRLEPEDFAVYYCHQYHRSPLTFGQGTKLEIKR | – | – | – | – | – | – | 90 nM | 0.00839 s⁻¹ | 93200 M⁻¹ s⁻¹ | 8.09 nM | 0.000474 s⁻¹ | 58600 M⁻¹ s⁻¹ |
| PD1B1093 (antibody, human IgG1, kappa, V domains shown, also called VH PD1H585; VL PD1L652) VH: QVQLVQSGSELKKPGASVKVSCKASGYTFTDYSMHWVRQAPGQGLEWMGWINIETGYPTYAQGFTGRFVFSLDTSVSTAYLQISSLKAEDTAVYFCARDYYGTYFYAMDYWGQGTLVTVSS VL: EIVLTQSPATLSLSPGERATLSCTASSSVPSSYLHWYQQKPGLAPRLLIYSTSNLASGIPDRFSGSGSGTDYTLTISRLEPEDFAVYYCHQYHRSPLTFGQGTKLEIKR | – | – | – | – | – | – | 2.18 nM | 0.000368 s⁻¹ | 169000 M⁻¹ s⁻¹ | 0.349 nM | 4.36e-05 s⁻¹ | 125000 M⁻¹ s⁻¹ |
| PD1B1092 (antibody, human IgG1, kappa, V domains shown, also called VH PD1H587; VL PD1L651) VH: QVQLVQSGSELKKPGASVKVSCKASGYTFTDYSMHWVRQAPGQGLEWMGWINIETGWPTYAQGFTGRFVFSLDTSVSTAYLQISSLKAEDTAVYFCARDYYGTYFYAMDYWGQGTLVTVSS VL: EIVLTQSPATLSLSPGERATLSCTASSSFSSSYLHWYQQKPGLAPRLLIYSTSNLASGIPDRFSGSGSGTDYTLTISRLEPEDFAVYYCHQYHRSPLTFGQGTKLEIKR | – | – | – | – | – | – | 3.18 nM | 0.000411 s⁻¹ | 129000 M⁻¹ s⁻¹ | 0.214 nM | 3e-05 s⁻¹ | 140000 M⁻¹ s⁻¹ |
| PD1B1095 (antibody, human IgG1, kappa, V domains shown, also called VH PD1H587; VL PD1L652) VH: QVQLVQSGSELKKPGASVKVSCKASGYTFTDYSMHWVRQAPGQGLEWMGWINIETGWPTYAQGFTGRFVFSLDTSVSTAYLQISSLKAEDTAVYFCARDYYGTYFYAMDYWGQGTLVTVSS VL: EIVLTQSPATLSLSPGERATLSCTASSSVPSSYLHWYQQKPGLAPRLLIYSTSNLASGIPDRFSGSGSGTDYTLTISRLEPEDFAVYYCHQYHRSPLTFGQGTKLEIKR | – | – | – | – | – | – | 4.23 nM | 0.000781 s⁻¹ | 185000 M⁻¹ s⁻¹ | 0.471 nM | 7.12e-05 s⁻¹ | 151000 M⁻¹ s⁻¹ |
| PD1B1087 (antibody, human IgG1, kappa, V domains shown, also called VH PD1H587; VL PD1L469) VH: QVQLVQSGSELKKPGASVKVSCKASGYTFTDYSMHWVRQAPGQGLEWMGWINIETGWPTYAQGFTGRFVFSLDTSVSTAYLQISSLKAEDTAVYFCARDYYGTYFYAMDYWGQGTLVTVSS VL: EIVLTQSPATLSLSPGERATLSCTASSSVSSSYLHWYQQKPGLAPRLLIYSTSNLASGIPDRFSGSGSGTDYTLTISRLEPEDFAVYYCHQYHRSPLTFGQGTKLEIKR | – | – | – | – | – | – | 11.6 nM | 0.00247 s⁻¹ | 212000 M⁻¹ s⁻¹ | 1.44 nM | 0.000239 s⁻¹ | 166000 M⁻¹ s⁻¹ |
| PD1B1091 (antibody, human IgG1, kappa, V domains shown, also called VH PD1H586; VL PD1L651) VH: QVQLVQSGSELKKPGASVKVSCKASGYTFTDYSMHWVRQAPGQGLEWMGWINIETGHPTYAQGFTGRFVFSLDTSVSTAYLQISSLKAEDTAVYFCARDYYGTYFYAMDYWGQGTLVTVSS VL: EIVLTQSPATLSLSPGERATLSCTASSSFSSSYLHWYQQKPGLAPRLLIYSTSNLASGIPDRFSGSGSGTDYTLTISRLEPEDFAVYYCHQYHRSPLTFGQGTKLEIKR | – | – | – | – | – | – | 9.32 nM | 0.000924 s⁻¹ | 99100 M⁻¹ s⁻¹ | 0.83 nM | 6.44e-05 s⁻¹ | 77700 M⁻¹ s⁻¹ |
